These results are taken from patent US20230203156A1 (WILLIAM ROBERT ARATHOON LIVING TRUST DATED AUGUST 29 2016, published 2023).

Read-outs that look alike come from different tables or passages of the source.

The target in assay [1] is T1, human MDR1 (multidrug resistance protein 1) (human, UniProt P08183 1-1280). Put plainly: cell-based or functional assay.
Assay [2] concerns the target T1, human MDR1 (multidrug resistance …). In words: cell-based or functional assay. The source holds these as a separate data set.
The next assay concerns the target T2, human CD47 (human, UniProt Q08722 19-323).
T2 construct: whole, on cells; Overexpressed on rat C6 cells, or endogenous on human tumour cell lines; also called KT14; hKT14
In words: binding to C6 cells expressing human CD47, figure legend.

B1: MRK16 (antibody, V domains shown)
VH: EVILVESGGGLVKPGGSLKLSCAASGFTFSSYTMSWVRQTPEKRLEWVATISSGGGNTYYPDSVKGRFTISRDNAKNNLYLQMSSLRSEDTALYYCARYYRYEAWFASWGQGTLVTVSA
VL: DVLMTQTPVSLSVSLGDQASISCRSSQSIVHSTGNTYLEWYLQKPGQSPKLLIYKISNRFSGVPDRFSGSGSGTDFTLKISRVEAEDLGVYYCFQASHFPRTFGGGTKLEIK
As for B1, in assay [1], the “IC50 of vincristine on N6/ADR cells with antibody” value (shortened to “IC50 of vincristine”) came to 0.734 nM.

B2: B1.85 (antibody, human IgG1, V domains shown)
VH: EVQLVESGGALVKPGGSLKLSCAASGFTFSNYGVSWVRQTPEKRLEWVATISSSGSYTYYPDIVRGRFTISRDNAKNTLYLQMSSLRSEDTAFYYCARGYGNFAWFAYWGQGTLVTVSA
VL: DIQMTQSPLSLPVSLGDQASISCRSSQSIVHSTGNTYLEWYLQKPGQSPKLLIYKVSNRFSGVPDRFSGSGSGTDFTLKINRVEAEDLGVYYCFQGSHVPYTFGGGTKLEIK
As to B2, the “IC50 of vincristine” value in assay [2] came out at 0.0345 nM.

B3: B1.30 (antibody, human IgG1, V domains shown)
VH: EVMLVESGGGLVKPGGSLKLSCAASGFTFSSYTMSWVRQTPEKRLEWVATISSGGGNTYYPDSVKGRFTISRDNAKNNLYLQMSSLRSEDTALYYCARYYRYDAWFAYWGQGTLVTVSA
VL: DVLMTQTPLSLPVSLGDQASISCRSSQSIVHSTGNTYLEWYLQKPGQSPKLLIYKVSNRFSGVPDRFSGSGSGTDFTLKISRVETEDLGVYYCFQGSHVPRTFGGGTKLEIK
As to B3, in assay [2], the “IC50 of vincristine” value came to 0.0522 nM.

B4: B1.39 (antibody, human IgG1, V domains shown)
VH: EVMLVESGGGLVKPGGSLKLSCAASGFTFSSYTMSWVRQTPEKRLEWVATVSSGGGNTYYPDSVKGRFTISRDNAKNNLYLQMSSLRSEDTALYYCARYGNYGWFTYWGQGTLVTVSA
VL: DVLMTQTPLSLPVSLGDQASISCRSSQSILHSNGNTYLEWYLQKPGQSPKLLIYKVSNRFSGVPDRFSASGSGTDFTLKISRVEAEDLGIYYCFQGSHVPRTFGGGTKLEIK
Consider B4, for which the “IC50 of vincristine” value in assay [2] came to 0.0909 nM.

B5: KT14.5F9hu scFv-B1.28.hu13 (bispecific antibody, human IgG1, kappa)
scFv: not shown
heavy: EVQLVESGGGLVKPGGSLRLSCAASGFTFGLYTMSWVRQAPGKGLEWVATISSGGSNTYYPDSVKGRFTISRDNAKNSLYLQMNSLRAEDTAVYYCARYYRYDAWFAYWGQGTLVTVSSASTKGPSVFPLAPSSKSTSGGTAALGCLVKDYFPEPVTVSWNSGALTSGVHTFPAVLQSSGLYSLSSVVTVPSSSLGTQTYICNVNHKPSNTKVDKRVEPKSCDKTHTCPPCPAPELLGGPSVFLFPPKPKDTLMISRTPEVTCVVVDVSHEDPEVKFNWYVDGVEVHNAKTKPREEQYNSTYRVVSVLTVLHQDWLNGKEYKCKVSNKALPAPIEKTISKAKGQPREPQVCTLPPSREEMTKNQVSLSCAVKGFYPSDIAVEWESNGQPENNYKTTPPVLDSDGSFFLVSKLTVDKSRWQQGNVFSCSVMHEALHNHYTQKSLSLSPGK
light: EVVLTQSPATLSLSPGERATLSCRSSQNIVHSTGNTYLDWYQQKPGQSPRLLIYKVSNRFSGVPARFSGSGSGTDFTLTISSLEPEDFAVYYCFQGSHIPRTFGGGTKLEIKRTVAAPSVFIFPPSDEQLKSGTASVVCLLNNFYPREAKVQWKVDNALQSGNSQESVTEQDSKDSTYSLSSTLTLSKADYEKHKVYACEVTHQGLSSPVTKSFNRGEC
As to B5, the binding result with human CD47 is recorded as “binds”.

B6: KT14.B6H12hu scFv-B1.28.hu13 (bispecific antibody, human IgG1, kappa)
scFv: not shown
heavy: EVQLVESGGGLVKPGGSLRLSCAASGFTFGLYTMSWVRQAPGKGLEWVATISSGGSNTYYPDSVKGRFTISRDNAKNSLYLQMNSLRAEDTAVYYCARYYRYDAWFAYWGQGTLVTVSSASTKGPSVFPLAPSSKSTSGGTAALGCLVKDYFPEPVTVSWNSGALTSGVHTFPAVLQSSGLYSLSSVVTVPSSSLGTQTYICNVNHKPSNTKVDKRVEPKSCDKTHTCPPCPAPELLGGPSVFLFPPKPKDTLMISRTPEVTCVVVDVSHEDPEVKFNWYVDGVEVHNAKTKPREEQYNSTYRVVSVLTVLHQDWLNGKEYKCKVSNKALPAPIEKTISKAKGQPREPQVCTLPPSREEMTKNQVSLSCAVKGFYPSDIAVEWESNGQPENNYKTTPPVLDSDGSFFLVSKLTVDKSRWQQGNVFSCSVMHEALHNHYTQKSLSLSPGK
light: EVVLTQSPATLSLSPGERATLSCRSSQNIVHSTGNTYLDWYQQKPGQSPRLLIYKVSNRFSGVPARFSGSGSGTDFTLTISSLEPEDFAVYYCFQGSHIPRTFGGGTKLEIKRTVAAPSVFIFPPSDEQLKSGTASVVCLLNNFYPREAKVQWKVDNALQSGNSQESVTEQDSKDSTYSLSSTLTLSKADYEKHKVYACEVTHQGLSSPVTKSFNRGEC
Take B6: the binding result in the assay with human CD47 is “binds”.

B7: B1.99 (antibody, human IgG1, V domains shown)
VH: EVQLVESGGALVKPGGSLKLSCAASGFTFSNYAMSWVRQTPERRLEWVATISSGGSYTYYPDSVKGRFTISRDNAKNTLYLQMSSLISEDTALYYCTRGYGNFAWFAYWGHGTLVTVSA
VL: DVVMTQTPLSLPVSLGDQVSISCRSSQSIVHSYGSTYLEWYLQKPGQSPKLLIYKVSNRFSGVPDRFSGSGSGTDFTLKISRVEAEDLGVYFCFQGSHIPYTFGGGTKLELK
For the molecule B7, the “IC50 of vincristine” value in assay [2] is 0.0619 nM.

B8: KT14.5F9hu scFv-B1.261.hu1 (bispecific antibody, human IgG1, kappa)
scFv: not shown
heavy: EVQLQESGPGLVKPSETLSLTCTVSGFSLTSYGVHWVRQPPGKGLEWLVVIWSDGSTTYNSALKSRLTISKDNSKNQVSLKLSSVTAADTAVYYCARHGRWLLQRGGAMDYWGQGTMVTVSSASTKGPSVFPLAPSSKSTSGGTAALGCLVKDYFPEPVTVSWNSGALTSGVHTFPAVLQSSGLYSLSSVVTVPSSSLGTQTYICNVNHKPSNTKVDKRVEPKSCDKTHTCPPCPAPELLGGPSVFLFPPKPKDTLMISRTPEVTCVVVDVSHEDPEVKFNWYVDGVEVHNAKTKPREEQYNSTYRVVSVLTVLHQDWLNGKEYKCKVSNKALPAPIEKTISKAKGQPREPQVCTLPPSREEMTKNQVSLSCAVKGFYPSDIAVEWESNGQPENNYKTTPPVLDSDGSFFLVSKLTVDKSRWQQGNVFSCSVMHEALHNHYTQKSLSLSPGK
light: DVQMTQSPSSLSASVGDRVTITCRASQNVGSYIAWYQQKPGKSPKALIYSASYRSSGVPSRFSGSGAGTDFTLTISSLQPEDFATYFCQQYNSYPLTFGGGTKLEIKRTVAAPSVFIFPPSDEQLKSGTASVVCLLNNFYPREAKVQWKVDNALQSGNSQESVTEQDSKDSTYSLSSTLTLSKADYEKHKVYACEVTHQGLSSPVTKSFNRGEC
With B8, the binding result with human CD47 is “binds”.

B9: KT14.B6H12hu scFv-B1.261.hu1 (bispecific antibody, human IgG1, kappa)
scFv: not shown
heavy: EVQLQESGPGLVKPSETLSLTCTVSGFSLTSYGVHWVRQPPGKGLEWLVVIWSDGSTTYNSALKSRLTISKDNSKNQVSLKLSSVTAADTAVYYCARHGRWLLQRGGAMDYWGQGTMVTVSSASTKGPSVFPLAPSSKSTSGGTAALGCLVKDYFPEPVTVSWNSGALTSGVHTFPAVLQSSGLYSLSSVVTVPSSSLGTQTYICNVNHKPSNTKVDKRVEPKSCDKTHTCPPCPAPELLGGPSVFLFPPKPKDTLMISRTPEVTCVVVDVSHEDPEVKFNWYVDGVEVHNAKTKPREEQYNSTYRVVSVLTVLHQDWLNGKEYKCKVSNKALPAPIEKTISKAKGQPREPQVCTLPPSREEMTKNQVSLSCAVKGFYPSDIAVEWESNGQPENNYKTTPPVLDSDGSFFLVSKLTVDKSRWQQGNVFSCSVMHEALHNHYTQKSLSLSPGK
light: DVQMTQSPSSLSASVGDRVTITCRASQNVGSYIAWYQQKPGKSPKALIYSASYRSSGVPSRFSGSGAGTDFTLTISSLQPEDFATYFCQQYNSYPLTFGGGTKLEIKRTVAAPSVFIFPPSDEQLKSGTASVVCLLNNFYPREAKVQWKVDNALQSGNSQESVTEQDSKDSTYSLSSTLTLSKADYEKHKVYACEVTHQGLSSPVTKSFNRGEC
As to B9, the binding result with human CD47 is “binds”.
